These results are taken from patent publication US20190352428A1 (Seagen, published 2019).

For orientation: IC50 means the point on the concentration scale where inhibition reaches its midpoint.

For test [1], the target named is T1, CD19 (UniProt P15391 20-556, limits assumed).
T1 sequence (looked up): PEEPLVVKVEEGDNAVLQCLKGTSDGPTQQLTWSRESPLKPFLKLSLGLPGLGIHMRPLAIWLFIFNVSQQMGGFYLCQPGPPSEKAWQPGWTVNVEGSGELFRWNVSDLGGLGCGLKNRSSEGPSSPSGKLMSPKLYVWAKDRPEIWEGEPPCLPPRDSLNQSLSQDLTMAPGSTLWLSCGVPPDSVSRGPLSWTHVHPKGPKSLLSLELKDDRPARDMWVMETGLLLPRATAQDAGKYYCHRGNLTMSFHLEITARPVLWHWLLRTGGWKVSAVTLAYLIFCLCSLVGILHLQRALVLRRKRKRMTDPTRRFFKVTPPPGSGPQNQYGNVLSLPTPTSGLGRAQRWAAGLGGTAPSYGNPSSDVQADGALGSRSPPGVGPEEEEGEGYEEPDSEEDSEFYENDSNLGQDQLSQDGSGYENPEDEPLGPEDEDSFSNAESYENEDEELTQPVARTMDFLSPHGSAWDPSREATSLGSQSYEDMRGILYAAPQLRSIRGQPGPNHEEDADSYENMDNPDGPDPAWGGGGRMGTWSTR
In words: cell-based or functional assay.

Test [2] concerns the target T1, CD19. The experiment in a line: FACS competition with labeled parent hBU12, Raji cells. As for the experimental part:
(§1) To evaluate cell binding of masked antibodies, 2×10⁵ of indicated cells (Raji, Ramos, PC3, Daudi) were combined with fluorescently labeled parent antibody mixed with serial dilutions of competitor (masked antibody) in staining buffer (PBS, 2% FBS, 0.2% NaN3). Samples were incubated for 1 hour on ice and washed twice with ice-cold staining buffer. Labeled cells were examined by flow cytometry on a BD LSRII gated to exclude nonviable cells and analyzed using Flowing Software (Turku Centre for Biotechnology). The IC50 was calculated using GraphPad Prism 6.
(§2) Four antibodies (hBU12 against CD19, anti-Antigen 1 antibody against Antigen 1 (cAg-1), 1C1 against EphA2 and HuMab CD74-011 against CD74) were tested using the coiled coil blocking domains. The antibody CD74 comprises a light chain (SEQ ID NO: 1) and a heavy chain (SEQ ID NO: 2). Sequences for A3B3, A4B4, CVel, antipO, and dHLX were N-terminally fused to the light and heavy chains of the antibodies. To test for binding, FACs-based competition assays were utilized to account for high concentrations of competitor necessary to displace the parent antibody and the results are listed in Tables 2-5. Other antibodies that can be conjugated to a coiled-coil peptide are SEQ ID NOs: 3-19. SEQ ID NO: 3 is the amino acid sequence of hBU12 heavy chain variable region, and SEQ ID NO: 4 is the amino acid sequence of hBU12 light chain variable region. […]

Test [3] deals with T2, CD74 (UniProt P04233 1-296).
T2 construct: whole, on cells; Target of HuMab-CD74-011
T2 sequence (looked up): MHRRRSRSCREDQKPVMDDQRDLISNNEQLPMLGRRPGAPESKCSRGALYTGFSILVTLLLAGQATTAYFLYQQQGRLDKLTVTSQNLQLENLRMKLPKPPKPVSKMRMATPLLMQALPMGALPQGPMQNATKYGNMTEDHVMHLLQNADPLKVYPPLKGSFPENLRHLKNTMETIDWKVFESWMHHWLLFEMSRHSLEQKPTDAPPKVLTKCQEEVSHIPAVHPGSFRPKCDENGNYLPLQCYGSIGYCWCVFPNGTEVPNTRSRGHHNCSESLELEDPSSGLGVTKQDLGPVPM
In words: FACS competition, Daudi cells; fold vs unmasked HuMab-CD74-011. As for the experimental part:
as §1
(§3) Activity was tested using the hBU12 antibody, cAg-1, 1C1, HuMab-CD74-011, and an antibody against Antigen 2, designated hAg-2.

The target in test [4] is CD19 (UniProt P15391). In words: cell-based or functional assay.
Test [5] deals with CD19 (UniProt P15391). The experiment in a line: competition FACS, Raji cells; vs parent.
For test [6], the target named is CD19 (UniProt P15391). In words: competition FACS, Raji cells; unit and quantity not given.
The target of test [7] is T1, CD19. The experiment in a line: FACS competition, Raji cells; fold vs hBU12ec. As for the experimental part: as §1, §2
The target in test [8] is T1, CD19. In words: FACS competition, Raji cells; fold vs unmasked hBU12ec. As for the experimental part:
as §1, §3

Bounds are passed on as bounds.

B1: hBU12ec-1910(2) (antibody, V domains shown)
VH: QVQLQESGPGLVKPSQTLSLTCTVSGGSISTSGMGVGWIRQHPGKGLEWIGHIWWDDDKRYNPALKSRVTISVDTSKNQFSLKLSSVTAADTAVYYCARMELWSYYFDYWGQGTLVTVSS
VL: EIVLTQSPATLSLSPGERATLSCSASSSVSYMHWYQQKPGQAPRLLIYDTSKLASGIPARFSGSGSGTDFTLTISSLEPEDVAVYYCFQGSVYPFTFGQGTKLEIKR
modifications: PBD drug-linker on the engineered cysteine at position 239 of the heavy chain constant region
On to B1, for which the “Cytotoxicity Data IC50 (ng/mL), Ramos cells” value in test [1] was 0.1 ng/mL.

B2: hBU12ec (antibody, V domains shown)
VH: B1 VH
VL: B1 VL
notes: Anti-CD19 antibody; also called parent antibody
As to B2, in test [2], the concentration for half-maximal inhibition (IC50) was 3.6 nM.

B3: CVel HuMab-CD74-011 (antibody)
heavy: EACGASTSVDELQAEVDQLEDENYALKTKVAQLRKKVEKLGSIPVSLRSGQVQLVESGGGVVQPGRSLRLSCAASGFTFSSYGMHWVRQAPDKGLEWVAVIWYDGSNKYYADSVKGRFTISRDNSKNTLYLQMNSLRAEDTAVYYCARGGTLVRGAMYGTDVWGQGTTVTVSS
light: EACGASTTVAQLEEKVKTLRAENYELKSEVQRLEEQVAQLGSIPVSLRSGDIQMTQSPSSLSASVGDRVTITCRASQGISSWLAWYQQKPEKAPKSLIYAASSLQSGVPSRFSGSGSGTDFTLTISSLQPEDFATYYCQQYNSYPLTFGGGTKVEIK
notes: not restated for this antibody
Regarding B3, the “fold decrease in binding” value in test [3] came to 26 fold.

B4: Cvel-1910(2) (antibody)
VH: EACGASTSVDELQAEVDQLEDENYALKTKVAQLRKKVEKLGSIPVSLRSGQVQLQESGPGLVKPSQTLSLTCTVSGGSISTSGMGVGWIRQHPGKGLEWIGHIWWDDDKRYNPALKSRVTISVDTSKNQFSLKLSSVTAADTAVYYCARMELWSYYFDYWGQGTLVTVSS
VL: EACGASTTVAQLEEKVKTLRAENYELKSEVQRLEEQVAQLGSIPVSLRSGEIVLTQSPATLSLSPGERATLSCSASSSVSYMHWYQQKPGQAPRLLIYDTSKLASGIPARFSGSGSGTDFTLTISSLEPEDVAVYYCFQGSVYPFTFGQGTKLEIKR
modifications: PBD drug-linker on the engineered cysteine at position 239 of the heavy chain constant region
Consider B4, for which, in test [4], the Cytotoxicity Data Fold Change, Ramos cells came out at 1320 fold and the Cytotoxicity Data IC50 (ng/mL), Ramos cells turned out to be 100 ng/mL. The Binding Data (fold decrease per paragraph 159) in test [5] was more than 160 fold. Also, the Binding Data in test [6] was more than 600.

B5: Cvel hBU12ec (antibody)
VH: B4 VH
VL: B4 VL
notes: the linker/protease site is not restated for this antibody; S239C constant region
Regarding B5, the “Fold Change” value in test [7] was more than 300 fold. Besides, the “fold decrease in binding” value in test [8] was more than 300 fold.
